From patent US20230002503A1 (BIOTHEUS, published 2023)

B1: H-YE-40 (Fc fusion)
chain: QVQLQESGGGLVQAGGSLRLSCAASGRTFSSYAMGWFRQAPGKEREFVATISWNGGSTYYADSVKGRFTISRDNAKNTVYLQMNSLKPEDTAVYYCAAEHDLGELAGTGYDYWGQGTQVTVSS
notes: also called CAIX nanobody H-YE-40; not shown: human IgG1 Fc segment
B2: H-YE-03 (Fc fusion)
chain: QVQLQESGGGLVQPGGSLRLSCTASTSSFNFQTMGWYRQAPGKQRELVATITSRAITNYADSVKGRFTISRDNAAKTVSLQMNSLKPEDTAVYYCNAAWIGDYWGQGTQVTVSA
notes: also called CAIX nanobody H-YE-03; not shown: human IgG1 Fc segment
B3: H-YE-04 (Fc fusion)
chain: QVQLQESGGGLVQPGGSLRLSCTASTSSFNFQTLGWYRQAPGNQRELVATITSRAITNYADSVKGRFTISRDNAAKTVSLQMNSLKPEDTAVYYCNAAWIGDYWGQGTQVTVSS
notes: also called CAIX nanobody H-YE-04; not shown: human IgG1 Fc segment
B4: Hu-H-YE-32-D6 (Fc fusion)
chain: QVQLVESGGGLVQPGGSLRLSCSASGGARNIFSFAAMAWYRQAPGKGLELVAVITSAGGTQYSSSVKGRFTISRDNSKKTLYLQMNSLRAEDTAVYYCNADYYQDYWGQGTQVTVSS
notes: also called humanized antibody from H-YE-32; not shown: human IgG1 Fc segment
B5: Hu-H-YE-32-D5 (Fc fusion)
chain: QVQLVESGGGLVQPGGSLRLSCSASGGARNIFSFAAMHWYRQAPGKGLELVAVITSAGGTYYADSVKGRFTISRDNSKKTLYLQMNSLRAEDTAVYYCNADYYQDYWGQGTQVTVSS
notes: T0013 prints the label as Hu-H-YB-32-D5; also called Hu-H-YB-32-D5; humanized antibody from H-YE-32; not shown: human IgG1 Fc segment
B6: H-YE-37 (Fc fusion)
chain: QVQLQESGGGLMHDGDSLRLSCAASGRTFSTYAMGWFRQAPGKEREFVAAISWSGGSTYYADSVKGRFTISRDNAKNTVYLQMNSLKPEDTAVYYCAAEGIYNSGSSYHDANGYDYWGQGTQVTVSS
notes: also called CAIX nanobody H-YE-37; not shown: human IgG1 Fc segment
B7: H-YE-38 (Fc fusion)
chain: QVQLQESGGGLMQPGGSLTLSCAVPRFTLDYYAIGWFRQAPGKEREFVAAISWSGGTTQYSDSAKGRFTISRDNSKNTGYLQMNSLKPEDTATYYCAAGRQLEWRTYDYWGQGTQVTVSS
notes: also called CAIX nanobody H-YE-38; not shown: human IgG1 Fc segment
B8: H-YE-24 (Fc fusion)
chain: QVQLQESGGGLVQPGGSLRLSCAASGNSVNIFRFAAMAWYRQAPGKQRELVAVITSAGGTKYSDSVKGRFTISRDNAKNTVLLQMNSLKPEDTAVYYCNADYLQDYWGQGTQVTVSS
notes: also called CAIX nanobody H-YE-24; not shown: human IgG1 Fc segment
B9: H-YE-05 (Fc fusion)
chain: QVQLQESGGGLVQPGGSRRLSCAASGNSVNIFSFAAVAWYRQAPGKQRELVAVITTTGGTKYSDSVKGRFTISRDSAKNTVLLQMNSLKPEDTAVYYCNADYLQDYWGQGTQVTVSS
notes: also called CAIX nanobody H-YE-05; not shown: human IgG1 Fc segment
B10: H-YE-25 (Fc fusion)
chain: QVQLQESGGGLVQPGGSLRLSCAASGNSVNIFRFAAMAWYRQAPGKQRELVAVITTTGGTKYSDSVKGRFTISRDSAKNTVLLQMNSLKPEDTAVYYCNADYLQDYWGQGTQVTVSS
notes: also called CAIX nanobody H-YE-25; not shown: human IgG1 Fc segment
B11: H-YE-32 (Fc fusion)
chain: QVQLQESGGGLVQPGGSLRLSCAASGGARNIFSFAAMAWYRQAPGKQRELVAVITSAGGTQYSSSVKGRFTISRDNAKKTVLLQMNSLKPEDTAVYYCNADYYQDYWGQGTQVTVSS
notes: also called CAIX nanobody H-YE-32; not shown: human IgG1 Fc segment
B12: H-YE-23 (Fc fusion)
chain: QVQLQESGGGLVQPGGSLRLSCAASGNSANIFSFASVAWYRQAPGKQRELVAVITSAGGTKYSDSVKGRFTISRDNAKNTILLQMNSLKPEDTAVYYCNVDYLQDYWGQGTQVTVSS
notes: also called CAIX nanobody H-YE-23; WYE-23; not shown: human IgG1 Fc segment
B13: H-YE-26 (Fc fusion)
chain: QVQLQESGGGLVQAGGSLRLSCAASGNSVNIFRFATVAWYRQAPGEQRELVAVITSAGGTKYSDSVKGRFTISRDNAKNTVLLQMNSLKPEDTAVYYCNADFLQDYWGQGTQVTVSS
notes: also called CAIX nanobody H-YE-26; not shown: human IgG1 Fc segment
B14: Hu-H-YE-05-D4 (Fc fusion)
chain: EVQLLESGGGLVQPGGSRRLSCAASGNSVNIFSFAAVAWYRQAPGKQRELVAVITTTGGTKYSDSVKGRFTISRDSSKNTVYLQMNSLRAEDTAVYYCNADYLQDYWGQGTQVTVSS
notes: also called humanized recombinant antibody from H-YE-05; not shown: human IgG1 Fc segment
B15: H-YE-33 (Fc fusion)
chain: QVQLQESGGGLVQPGGSLRLSCAASGGDFRFYDMGWYRQAPGKQRELVAGITTRGYTNYADVVKGRFTISRDNAKNTVYLEMNSLKPEDTAVYSCSASHFLGGRIDYWGQGTQVTVSS
notes: also called CAIX nanobody H-YE-33; not shown: human IgG1 Fc segment
B16: Hu-H-YE-05-D3 (Fc fusion)
chain: EVQLLESGGGLVQPGGSLRLSCAASGNSVNIFSFAAMSWYRQAPGKGLELVAVITTTGGTKYSDSVKGRFTISRDNSKNTLYLQMNSLRAEDTAVYYCNADYLQDYWGQGTQVTVSS
notes: as for B14
B17: Hu-H-YE-23-D2 (Fc fusion)
chain: QVQLVESGGGLVQPGGSLRLSCSASGNSANIFSFASVAWYRQAPGKGLELVSVITSAGGTKYSDSVKGRFTISRDNSKNTLYLQMNSLRAEDTAVYYCNVDYLQDYWGQGTLVTVSS
notes: T0013 prints the label as Hu-H-YB-23-D2; also called Hu-H-YB-23-D2; humanized recombinant antibody from H-YE-23; not shown: human IgG1 Fc segment

Columns and labels:
[1] = biological target: T1, human CAIX antigen (purchased from AcroBiosystems) (human, UniProt Q16790 38-414); assay: BLI (ForteBio), antibody on AHQ sensor, 100 nM antigen, 1:1 model
[2] = biological target: T2, human CAIX on CHO cells (CHO-hCAIX) (human, UniProt Q16790 38-459); assay: flow cytometry on CHO-hCAIX cells, anti-human IgG-Fc PE
Method: (§1) CHO cells overexpressing human CAIX (CHO-hCAIX cells) were generated by the pCHO1.0 vector (purchased from Invitrogen) transfected with CAIX cDNA. The cell density of the proliferated CHO-CAIX cells were adjusted to 2×10⁶ cells/ml, added at 100 μL/well to a 96-well flow cytometry plate, and centrifuged for later use. The purified CAIX antibody was diluted with PBS, and 3-fold dilution was started from 400 nM for a total of 12 points, and 100 μL/well of the above diluted sample was added to the above-mentioned 96-well flow cytometry plate with the cells, incubated at 4° C. for 30 min, and washed with PBS for two times. Goat F(ah′)2 Anti-Human IgG-Fc(PE) (purchased from Abeam, ab98596) diluted 100 times with PBS was added at 100 μL/well, incubated at 4° C. for 30 min, and washed twice with PBS. PBS was added at 100 μl/well to resuspend the cells, the cells were detected on a CytoFlex (Bechman) flow cytometer, and the corresponding MFI was calculated.

[3] = biological target: T3, monkey CAIX on CHO cells (CHO-cyCAIX) (monkey); assay: flow cytometry on CHO-cyCAIX cells
T3 construct: whole, on cells
Method: as §1
In order to identify the affinity of the antibody to monkey CAIX (cyCAIX) at cell level, the cell strain was constructed according to the method described in Example 4, the affinity of the purified humanized antibody to CHO-cyCAIX was identified at cell level, and the results were shown in FIG. 3 and Table 6.

[4] = biological target: T2, human CAIX on CHO cells (CHO-hCAIX); assay: flow cytometry on CHO-hCAIX cells
Method: as §1
The purified humanized antibodies were subjected to the detection of binding capacity of the purified humanized nanobody to CHO-hCAIX at cell level according to the method described in Example 4, and the results were shown in FIG. 2 and Table 5.

[5] = biological target: T4, murine CAIX on CHO cells (CHO-mCAIX) (mouse, UniProt Q8VHB5 32-437); assay: flow cytometry on CHO-mCAIX cells
T4 construct: whole, on cells; also called mouse CAIX
T4 sequence (Q8VHB5 32-437): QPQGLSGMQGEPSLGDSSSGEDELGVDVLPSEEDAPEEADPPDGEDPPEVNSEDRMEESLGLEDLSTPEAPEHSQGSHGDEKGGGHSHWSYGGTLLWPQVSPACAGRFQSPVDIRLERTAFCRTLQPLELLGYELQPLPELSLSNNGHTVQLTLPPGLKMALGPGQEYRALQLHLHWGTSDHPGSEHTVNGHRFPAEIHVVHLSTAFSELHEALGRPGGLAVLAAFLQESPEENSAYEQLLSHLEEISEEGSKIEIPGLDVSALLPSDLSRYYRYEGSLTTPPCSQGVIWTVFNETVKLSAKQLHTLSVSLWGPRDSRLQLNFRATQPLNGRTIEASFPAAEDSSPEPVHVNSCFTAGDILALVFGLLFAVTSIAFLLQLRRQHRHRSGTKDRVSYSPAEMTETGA
Method: as §1
In order to identify the affinity of the antibody to murine CAIX (mCAIX) at cell level, the cell stain was constructed according to the method described in Example 4, the affinity of the purified humanized antibody to CHO-mCAIX at cell level was identified, and the results were shown in FIG. 4 and Table 7.

[6] = biological target: T1, human CAIX antigen (purchased from …); assay: BLI (ForteBio), method of Example 3
[7] = biological target: T1, human CAIX antigen (purchased from …); assay: BLI (ForteBio), method of Example 3; second run, alongside the humanized antibodies (Table 4)

Row | Binder | Kd [1] | koff [1] | kon [1] | EC50 [2] | EC50 [3] | EC50 [4] | EC50 [5] | Kd [6] | koff [6] | kon [6] | Kd [7]
1 | B1 | 2.53 nM | 0.00125 s⁻¹ | 495000 M⁻¹ s⁻¹ | 4.74 nM |  |  |  |  |  |  | 
2 | B2 | 1.14 nM | 0.00141 s⁻¹ | 1.24e+06 M⁻¹ s⁻¹ | 7.34 nM |  |  |  |  |  |  | 
3 | B3 | 0.282 nM | 0.000259 s⁻¹ | 919000 M⁻¹ s⁻¹ | 7.78 nM |  |  |  |  |  |  | 
4 | B4 |  |  |  |  | 8.39 nM | 9.61 nM | 59.6 nM | 0.384 nM | 0.0001 s⁻¹ | 260000 M⁻¹ s⁻¹ | 
5 | B5 |  |  |  |  | 22.7 nM | 2.33 nM | 552 nM | 8.2 nM | 0.00177 s⁻¹ | 216000 M⁻¹ s⁻¹ | 
6 | B6 | 2.39 nM | 0.00249 s⁻¹ | 1.04e+06 M⁻¹ s⁻¹ | 6.07 nM |  |  |  |  |  |  | 
7 | B7 | 0.529 nM | 0.000513 s⁻¹ | 969000 M⁻¹ s⁻¹ |  |  |  |  |  |  |  | 
8 | B8 | 1.34 nM | 0.000798 s⁻¹ | 594000 M⁻¹ s⁻¹ | 3.06 nM |  |  |  |  |  |  | 
9 | B9 | 0.557 nM | 0.000662 s⁻¹ | 1.19e+06 M⁻¹ s⁻¹ | 8.79 nM | 7.32 nM | 4.55 nM | 31.7 nM |  | 0.00159 s⁻¹ | 155000 M⁻¹ s⁻¹ | 10.3 nM
10 | B10 | 1.21 nM | 0.00106 s⁻¹ | 875000 M⁻¹ s⁻¹ | 2.44 nM |  |  |  |  |  |  | 
11 | B11 | 0.498 nM | 0.000492 s⁻¹ | 988000 M⁻¹ s⁻¹ | 6.14 nM | 9.42 nM | 14.6 nM | 34.1 nM | 0.369 nM | 0.0001 s⁻¹ | 271000 M⁻¹ s⁻¹ | 
12 | B12 | 0.218 nM | 0.0002 s⁻¹ | 917000 M⁻¹ s⁻¹ | 3.55 nM | 6.55 nM | 3.11 nM | 38.1 nM | 4.08 nM | 0.000556 s⁻¹ | 136000 M⁻¹ s⁻¹ | 
13 | B13 | 0.109 nM | 0.000109 s⁻¹ | 999000 M⁻¹ s⁻¹ | 4.46 nM |  |  |  |  |  |  | 
14 | B14 |  |  |  |  | 13.5 nM | 5.07 nM | 58.8 nM | 7.84 nM | 0.00142 s⁻¹ | 181000 M⁻¹ s⁻¹ | 
15 | B15 | 2.04 nM | 0.00139 s⁻¹ | 682000 M⁻¹ s⁻¹ | 2.78 nM |  |  |  |  |  |  | 
16 | B16 |  |  |  |  | 14.3 nM | 4.46 nM | 20.8 nM | 10.3 nM | 0.00185 s⁻¹ | 179000 M⁻¹ s⁻¹ | 
17 | B17 |  |  |  |  | 25.1 nM | 8.71 nM | 43.7 nM | 6.68 nM | 0.00105 s⁻¹ | 158000 M⁻¹ s⁻¹ | 
